IC50 (µg/mL), pseudovirus neutralization and IC50 (µg/mL), neutralization of pseudovirus data for 3 molecules are collected here from patent publication US20240132578A1.

B1: PGT-136 (antibody, V domains shown)
VH: QLQLQESGPGLVKPSETLSLTCTVSGGSMRGTDWGENDFHYGWIRQSSAKGLEWIGSIHWRGRTTHYKTSFRSRATLSIDTSNNRFSLTFSFVTAADTAVYYCARHKYHDIFRVVPVAGWFDPWGQGLLVTVSS
VL: EIVMTQSPPTLSVSPGETATLSCRASQNVKNNLAWYQLKPGQAPRLLIFDASSRAGGIPDRFSGSGYGTDFTLTVNSVQSEDFGDYFCQQYEEWPRTFGQGTKVDIK
B2: PGT-137 (antibody, V domains shown)
VH: EVHLEESGPGLVRPSETLSLTCTASGGSIRGGEWGDSDYHWGWVRHSPEKGLEWIGSIHWRGTTHYNAPFRGRGRLSIDLSRNQFSLRLTSVTAEDTAVYYCVKHKYHDIVMVVPIAGWFDPWGQGLQVTVSS
VL: EIMMTQSPAILSVSPGDRATLSCRASQSVKNNLAWYQKRPGQAPRLLIFDTSSRASGIPARFSGGGSGTEFTLTVNSMQSEDFATYYCQQYEEWPRTFGQGTKVEIK
B3: PGT-131 (antibody, V domains shown)
VH: QVQLQESGPGLVKPSETLSLTCTVSGDSINTGHHYWGWVRQVPGKGPEWIAHIHYNTAVLHNPALKSRVTISIFTLKNLITLSLSNVTAADTAVYFCVRSGGDILYYIEWQKPHWFYPWGPGILVTVSS
VL: QSALTQPPSASGSLGQSLTISCSGTGSDIGSWNFVSWYQQFPGRAPNLIIFEVNRRRSGVPDRFSGSKSGNTASLTVSGLRSEDEAEYFCSSLSGRWDIVFGGGTKVTVL

The target in the first test is HIV-1 Env of isolate 6535.3 (subtype B) (HIV-1). Kind of test: cell-based or functional assay.
Take B1: the IC50 (µg/mL), pseudovirus neutralization is > 50 µg/mL.

For the molecule B2, the IC50 (µg/mL), pseudovirus neutralization was > 50 µg/mL.

B3 gave an IC50 (µg/mL), pseudovirus neutralization of 0.056 µg/mL.

In a further test the target is HIV-1 Env of isolate 92BR020 (subtype B) (HIV-1). Kind of test: cell-based or functional assay.
On to B1, for which the IC50 (µg/mL), pseudovirus neutralization came out at 8.61 µg/mL.

On to B2, for which the IC50 (µg/mL), pseudovirus neutralization amounted to 7.81 µg/mL.

On to B3, for which the IC50 (µg/mL), pseudovirus neutralization worked out at 6.16 µg/mL.

Another test addresses HIV-1 Env of isolate 93TH305 (subtype B) (HIV-1). Kind of test: cell-based or functional assay.
Molecule B1 showed an IC50 (µg/mL), pseudovirus neutralization of 20.2 µg/mL.

Consider B2, for which the IC50 (µg/mL), pseudovirus neutralization is > 50 µg/mL.

Molecule B3 yielded an IC50 (µg/mL), pseudovirus neutralization of 0.016 µg/mL.

The next test has as its target HIV-1 Env of isolate APV 13 (subtype B) (HIV-1). Description: cell-based or functional assay.
B1: the IC50 (µg/mL), pseudovirus neutralization was > 50 µg/mL.

In the case of B2, the IC50 (µg/mL), pseudovirus neutralization is > 50 µg/mL.

The molecule B3 yielded an IC50 (µg/mL), pseudovirus neutralization of 0.189 µg/mL.

The target in the next test is HIV-1 Env of isolate APV 6 (subtype B) (HIV-1). Kind of test: cell-based or functional assay.
In the case of B1, the IC50 (µg/mL), pseudovirus neutralization was > 50 µg/mL.

For B2, the IC50 (µg/mL), pseudovirus neutralization was > 50 µg/mL.

Take B3: the IC50 (µg/mL), pseudovirus neutralization is > 50 µg/mL.

The target of another test is HIV-1 Env of isolate APV_17 (subtype B) (HIV-1). Description: cell-based or functional assay.
As to B1, the IC50 (µg/mL), pseudovirus neutralization is > 50 µg/mL.

For B2, the IC50 (µg/mL), pseudovirus neutralization is > 50 µg/mL.

Take B3: the IC50 (µg/mL), pseudovirus neutralization was > 50 µg/mL.

For a further test, the target named is HIV-1 Env of isolate MGRM-G-001 (subtype G), on pseudovirus (HIV-1). Kind of test: cell-based or functional assay.
Consider B1, for which the IC50 (µg/mL), neutralization of pseudovirus turned out to be 8.11 µg/mL.

The molecule B2 gave an IC50 (µg/mL), neutralization of pseudovirus of 41.7 µg/mL.

In the case of B3, the IC50 (µg/mL), neutralization of pseudovirus is 0.404 µg/mL.

The target in a further test is HIV-1 Env of isolate MGRM-G-004 (subtype G), on pseudovirus (HIV-1). Kind of test: cell-based or functional assay.
Consider B1, for which the IC50 (µg/mL), neutralization of pseudovirus is > 50 µg/mL.

With B2, the IC50 (µg/mL), neutralization of pseudovirus is > 50 µg/mL.

For B3, the IC50 (µg/mL), neutralization of pseudovirus is > 50 µg/mL.

Another test concerns the target HIV-1 Env of isolate MGRM-G-006 (subtype G), on pseudovirus (HIV-1). Description: cell-based or functional assay.
Regarding B1, the IC50 (µg/mL), neutralization of pseudovirus was > 50 µg/mL.

With B2, the IC50 (µg/mL), neutralization of pseudovirus was > 50 µg/mL.

B3: the IC50 (µg/mL), neutralization of pseudovirus is > 50 µg/mL.

For a further test, the target named is HIV-1 Env of isolate MGRM-G-009 (subtype G), on pseudovirus (HIV-1). Kind of test: cell-based or functional assay.
Consider B1, for which the IC50 (µg/mL), neutralization of pseudovirus was > 50 µg/mL.

On to B2, for which the IC50 (µg/mL), neutralization of pseudovirus is > 50 µg/mL.

With B3, the IC50 (µg/mL), neutralization of pseudovirus was > 50 µg/mL.

A further test deals with HIV-1 Env of isolate MGRM-G-011 (subtype G), on pseudovirus (HIV-1). Kind of test: cell-based or functional assay.
Take B1: the IC50 (µg/mL), neutralization of pseudovirus was > 50 µg/mL.

As for B2, the IC50 (µg/mL), neutralization of pseudovirus is > 50 µg/mL.

For B3, the IC50 (µg/mL), neutralization of pseudovirus is > 50 µg/mL.

Another test deals with HIV-1 Env of isolate MGRM-G-013 (subtype G), on pseudovirus (HIV-1). Description: cell-based or functional assay.
Turning to B1, the IC50 (µg/mL), neutralization of pseudovirus was > 50 µg/mL.

Take B2: the IC50 (µg/mL), neutralization of pseudovirus was > 50 µg/mL.

Turning to B3, the IC50 (µg/mL), neutralization of pseudovirus was > 50 µg/mL.

For the next test, the target named is HIV-1 Env of isolate MGRM-G-014 (subtype G), on pseudovirus (HIV-1). Kind of test: cell-based or functional assay.
On to B1, for which the IC50 (µg/mL), neutralization of pseudovirus was > 50 µg/mL.

Regarding B2, the IC50 (µg/mL), neutralization of pseudovirus was > 50 µg/mL.

The molecule B3 displayed an IC50 (µg/mL), neutralization of pseudovirus of 4.31 µg/mL.

The target in another test is HIV-1 Env of isolate MGRM-G-015 (subtype G), on pseudovirus (HIV-1). Description: cell-based or functional assay.
B1: the IC50 (µg/mL), neutralization of pseudovirus was > 50 µg/mL.

Turning to B2, the IC50 (µg/mL), neutralization of pseudovirus is > 50 µg/mL.

For the molecule B3, the IC50 (µg/mL), neutralization of pseudovirus was > 50 µg/mL.

A further test has as its target HIV-1 Env of isolate MGRM-G-016 (subtype G), on pseudovirus (HIV-1). Description: cell-based or functional assay.
As to B1, the IC50 (µg/mL), neutralization of pseudovirus was > 50 µg/mL.

Turning to B2, the IC50 (µg/mL), neutralization of pseudovirus was > 50 µg/mL.

As to B3, the IC50 (µg/mL), neutralization of pseudovirus is > 50 µg/mL.

In a further test the target is HIV-1 Env of isolate MGRM-G-017 (subtype G), on pseudovirus (HIV-1). Kind of test: cell-based or functional assay.
Consider B1, for which the IC50 (µg/mL), neutralization of pseudovirus is > 50 µg/mL.

Consider B2, for which the IC50 (µg/mL), neutralization of pseudovirus worked out at 34.9 µg/mL.

With B3, the IC50 (µg/mL), neutralization of pseudovirus was > 50 µg/mL.

The target of the next test is HIV-1 Env of isolate MGRM-G-019 (subtype G), on pseudovirus (HIV-1). Description: cell-based or functional assay.
B1 returned an IC50 (µg/mL), neutralization of pseudovirus of 44.3 µg/mL.

B2 had an IC50 (µg/mL), neutralization of pseudovirus of 0.126 µg/mL.

Consider B3, for which the IC50 (µg/mL), neutralization of pseudovirus was > 50 µg/mL.

The target of the next test is HIV-1 Env of isolate MGRM-G-024 (subtype G), on pseudovirus (HIV-1). Kind of test: cell-based or functional assay.
In turn, B1 returned an IC50 (µg/mL), neutralization of pseudovirus of 0.152 µg/mL.

Molecule B2 returned an IC50 (µg/mL), neutralization of pseudovirus of 0.051 µg/mL.

Molecule B3 returned an IC50 (µg/mL), neutralization of pseudovirus of 10.7 µg/mL.

The target in a further test is HIV-1 Env of isolate MGRM-G-025 (subtype G), on pseudovirus (HIV-1). Description: cell-based or functional assay.
Take B1: the IC50 (µg/mL), neutralization of pseudovirus is > 50 µg/mL.

For B2, the IC50 (µg/mL), neutralization of pseudovirus is > 50 µg/mL.

Molecule B3 gave an IC50 (µg/mL), neutralization of pseudovirus of 7.75 µg/mL.

For another test, the target named is HIV-1 Env of isolate MGRM-G-027 (subtype G), on pseudovirus (HIV-1). Description: cell-based or functional assay.
As for B1, the IC50 (µg/mL), neutralization of pseudovirus was found to be 45.2 µg/mL.

As for B2, the IC50 (µg/mL), neutralization of pseudovirus amounted to 0.228 µg/mL.

Regarding B3, the IC50 (µg/mL), neutralization of pseudovirus worked out at 2.9 µg/mL.

The next test addresses HIV-1 Env of isolate MGRM-G-028 (subtype G), on pseudovirus (HIV-1). Kind of test: cell-based or functional assay.
Take B1: the IC50 (µg/mL), neutralization of pseudovirus is > 50 µg/mL.

Regarding B2, the IC50 (µg/mL), neutralization of pseudovirus is > 50 µg/mL.

Consider B3, for which the IC50 (µg/mL), neutralization of pseudovirus worked out at 0.466 µg/mL.

The target of a further test is aMLV envelope, on pseudovirus (negative control). Kind of test: cell-based or functional assay.
As to B1, the IC50 (µg/mL), neutralization of pseudovirus is > 50 µg/mL.

For the molecule B2, the IC50 (µg/mL), neutralization of pseudovirus was > 50 µg/mL.

In the case of B3, the IC50 (µg/mL), neutralization of pseudovirus is > 50 µg/mL.
